Assay [1] deals with recombinant human GREM1 (hGREM1-His; C-terminal 10His tagged, R&D, #5190-GR) (human) (UniProt O60565). Description: cell-based or functional assay.
Assay [2] shares this target. The assay can be described thus: BLI Octet, captured mAb, 100 nM GREM1. Background: BLI is a label-free optical method that tracks binding on a fibre tip over time.
Assay [3] has the same target. Description: BLI Octet, captured mAb, 100 nM GREM1 + 5 uM heparin.
Assay [4] has the same target. Description: BLI Octet, captured mAb, 100 nM GREM1 without vs with 5 uM heparin.

recombinant human GREM1 (hGREM1-His; C-terminal 10His tagged, R&D, #5190-GR) (human), sequence (O60565 other isoform, or with tags, fused parts or gaps limits assumed, form in doubt): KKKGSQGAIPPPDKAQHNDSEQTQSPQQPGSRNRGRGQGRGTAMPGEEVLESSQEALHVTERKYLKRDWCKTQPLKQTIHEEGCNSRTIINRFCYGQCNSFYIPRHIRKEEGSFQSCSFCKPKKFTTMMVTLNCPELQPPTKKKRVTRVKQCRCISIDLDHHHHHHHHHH

B1: H4H6246P (antibody, human IgG4, V domains shown)
VH: QVQLVESGGGVVQPGRSLRLSCAASGFTFSSYGMHWVRQAPGKGLEWVAIIWYDGSNRYYADSVKGRFTISRDNSRNTLYLQMNSLRAEDTAVYYCARDEYGDYDYPFDYWGQGTLVTVSS
VL: DIQMTQSPSSLSASVGDRVTITCRASQGIRNDLGWFQQKPGKAPKRLIYAASSLQSGVPSRFSGSGSGTEFTLTISSLQPEDFATYYCLQHNTYPPFTFGPGTKVDIK
Regarding B1, in assay [1], the IC50 [M], W-20-17/BRE-luc luciferase bioassay, 100 pM hBMP4 and 10 nM hGREM1-His is 5.6e-10 M; the hGREM1-His Inhibition IC50, M; W-20-17 cell differentiation assay (alkaline phosphatase) worked out at 6.2 nM. In assay [2], the Binding Signal with 30 sec Association (nm) was 0.19 nm and the Binding Signal with 300 sec Association (nm) worked out at 0.38 nm. In assay [3], the Binding Signal with 30 sec Association (nm) was 0.06 nm and the Binding Signal with 300 sec Association (nm) is 0.34 nm. Further, in assay [4], the Reduction in Signal from Heparin at 30 sec was determined as 0.13 nm and the Reduction in Signal from Heparin at 300 sec stood at 0.04 nm.

B2: H4H6250P (antibody, human IgG4, V domains shown)
VH: QVQLVESGGGVVQPGRSLRLSCAASGFTFSNYGMHWVRQAPGKGLEWVAVIWYDGSNKYYADSVKGRFTISRDNSRKTLYLQMNSLRAEDTAIYYCTRDDYGDYDYPFDYWGQGTLVTVSS
VL: DIQMTQSPSSLSASVGDRVTITCRASQGIRNDLGWYQQKPGKAPKRLIYAASSLQSGVPSRFSGTGSGTEFTLTISSLQPEDFATYYCLQHNSYPPFTFGPGTKVDIK
As to B2, in assay [1], the IC50 [M], W-20-17/BRE-luc luciferase bioassay, 100 pM hBMP4 and 10 nM hGREM1-His came to 4.4e-10 M; the hGREM1-His Inhibition IC50, M; W-20-17 cell differentiation assay (alkaline phosphatase) amounted to 12 nM. Moreover, in assay [2], the Binding Signal with 30 sec Association (nm) is 0.2 nm and the Binding Signal with 300 sec Association (nm) turned out to be 0.37 nm. Further, in assay [3], the Binding Signal with 30 sec Association (nm) was 0.06 nm and the Binding Signal with 300 sec Association (nm) came to 0.32 nm. Further, in assay [4], the Reduction in Signal from Heparin at 30 sec came out at 0.14 nm and the Reduction in Signal from Heparin at 300 sec came to 0.05 nm.

B3: H4H6252P (antibody, human IgG4, V domains shown)
VH: QVQLVESGGGVVQPGRSLRLSCAASGFTFSNYGMHWVRQAPGRGLEWVAVIWFDGSNKYYADSVKGRFTISRDNSKNTLYLQMNSLRSEDTAVYYCTRDDYGDYDYPFDYWGQGTLVTVSS
VL: DIQMTQSPSSLSASVGDRVTITCRASQGIRNDLGWYQQKPGKAPKRLIYAASSLQSGVPSRFSGSGSGTEFTLTISSLQPEDFATYYCLQYNTYPPFTFGPGTKVDIK
B3: in assay [1], the IC50 [M], W-20-17/BRE-luc luciferase bioassay, 100 pM hBMP4 and 10 nM hGREM1-His stood at 8.2e-10 M; the hGREM1-His Inhibition IC50, M; W-20-17 cell differentiation assay (alkaline phosphatase) turned out to be 6.1 nM. In assay [2], the Binding Signal with 30 sec Association (nm) amounted to 0.23 nm and the Binding Signal with 300 sec Association (nm) is 0.44 nm. Further, in assay [3], the Binding Signal with 30 sec Association (nm) is 0.04 nm and the Binding Signal with 300 sec Association (nm) was 0.35 nm. In assay [4], the Reduction in Signal from Heparin at 30 sec was found to be 0.19 nm and the Reduction in Signal from Heparin at 300 sec is 0.09 nm.

B4: H4H6248P (antibody, human IgG4, V domains shown)
VH: QVQLVESGGGVVQPGRSLRLSCAASGFTFSNYGMHWVRQVPGKGLEWVAVIWYDGSNKYYADSVKGRFTISRDNSKNTLYLQMNSVRAEDTAVYYCARDDYGDSPGFDYWGQGTLVTVSS
VL: EIVMTQSPATLSVSPGERATLSCRASQSVSSSLAWYQQKPGQAPRLLIYDASTRATGIPARFSGSGSGTEFTLTISGLQSEDFAVYYCQQYNNWPPWTFGQGTKVEIK
Turning to B4, in assay [1], the IC50 [M], W-20-17/BRE-luc luciferase bioassay, 100 pM hBMP4 and 10 nM hGREM1-His turned out to be 5.3e-10 M; the hGREM1-His Inhibition IC50, M; W-20-17 cell differentiation assay (alkaline phosphatase) is 5.6 nM. For the same molecule, in assay [2], the Binding Signal with 30 sec Association (nm) turned out to be 0.21 nm and the Binding Signal with 300 sec Association (nm) is 0.42 nm. Further, in assay [3], the Binding Signal with 30 sec Association (nm) was 0.04 nm and the Binding Signal with 300 sec Association (nm) came to 0.37 nm. Also, in assay [4], the Reduction in Signal from Heparin at 30 sec stood at 0.17 nm and the Reduction in Signal from Heparin at 300 sec turned out to be 0.05 nm.

B5: H4H6270P (antibody, human IgG4, V domains shown)
VH: QVQLVESGGDVVQPGRSLRLSCAASGFTFSSYGMHWVRQAPGKGLEWVAIIWNDGSNKYYTDSVKGRFTISRDNSKNTLYLQMNGLRAEDTAIYYCARDQDQFDYWGQGTLVTVSS
VL: EIVMTQSPATLSVSPGERATLSCRASQSISTNLAWYRQKPGQAPRLLIYDASTRATGIPARFSGSGSGTDFTLTISSLQSEDFAVYYCQQYSNWPPYTFGQGTKLEIK
For the molecule B5, in assay [1], the IC50 [M], W-20-17/BRE-luc luciferase bioassay, 100 pM hBMP4 and 10 nM hGREM1-His was found to be 5.4e-10 M; the hGREM1-His Inhibition IC50, M; W-20-17 cell differentiation assay (alkaline phosphatase) was 3.1 nM. In assay [2], the Binding Signal with 30 sec Association (nm) came to 0.2 nm and the Binding Signal with 300 sec Association (nm) is 0.39 nm. For the same molecule, in assay [3], the Binding Signal with 30 sec Association (nm) was found to be 0.05 nm and the Binding Signal with 300 sec Association (nm) was found to be 0.33 nm. In assay [4], the Reduction in Signal from Heparin at 30 sec worked out at 0.15 nm and the Reduction in Signal from Heparin at 300 sec worked out at 0.06 nm.

B6: H4H6251P (antibody, human IgG4, V domains shown)
VH: QVQLVESGGGVVQPGKSLRLSCAASGFTFSRYGMHWVRQAPGKGLEWVAVIWYDGSNKYYADSVKGRFTISRDNSKNTLYLQMNSLRADDTAMYYCARDDYGDSPGFDFWGQGTLVTVSS
VL: EIVMTQSPATLSVSPGERATLSCRASQSVSSNLAWYQQKPGQAPRLLIYDASTRATGIPARFSGTGSGTEFTLTISSLQSEDFALYYCQQYDDWPPWTFGQGTKVEIK
Consider B6, for which, in assay [1], the IC50 [M], W-20-17/BRE-luc luciferase bioassay, 100 pM hBMP4 and 10 nM hGREM1-His stood at 6.3e-10 M; the hGREM1-His Inhibition IC50, M; W-20-17 cell differentiation assay (alkaline phosphatase) was 11 nM. In addition, in assay [2], the Binding Signal with 30 sec Association (nm) was found to be 0.27 nm and the Binding Signal with 300 sec Association (nm) was found to be 0.45 nm. Further, in assay [3], the Binding Signal with 30 sec Association (nm) stood at 0.03 nm and the Binding Signal with 300 sec Association (nm) was found to be 0.36 nm. In assay [4], the Reduction in Signal from Heparin at 30 sec stood at 0.24 nm and the Reduction in Signal from Heparin at 300 sec worked out at 0.09 nm.

B7: H4H6260P (antibody, human IgG4, V domains shown)
VH: QVQLVESGGGVVQPGRSLRLSCAASGFTFSTYGMHWVRQAPGKGLEWVAIIWYDGSNYYYADSVKGRFTISRDNSKNTLYLQMNSLRAEDTAVYYCAREDRNDVFDIWGQGTMVTVSS
VL: EIVLTQSPATLSLSPGERATLSCRASQSVSSFLAWYQQKPGQAPRLLIYDSSNRATGIPARFSGSGSGTDFTLTISSLEPEDFAVYYCQQLSNWPPITFGQGTRLEIK
Regarding B7, in assay [1], the IC50 [M], W-20-17/BRE-luc luciferase bioassay, 100 pM hBMP4 and 10 nM hGREM1-His amounted to 4.6e-10 M; the hGREM1-His Inhibition IC50, M; W-20-17 cell differentiation assay (alkaline phosphatase) was found to be 3.3 nM. Moreover, in assay [2], the Binding Signal with 30 sec Association (nm) turned out to be 0.24 nm and the Binding Signal with 300 sec Association (nm) came to 0.42 nm. Besides, in assay [3], the Binding Signal with 30 sec Association (nm) came out at 0.07 nm and the Binding Signal with 300 sec Association (nm) turned out to be 0.37 nm. In assay [4], the Reduction in Signal from Heparin at 30 sec was found to be 0.17 nm and the Reduction in Signal from Heparin at 300 sec was found to be 0.05 nm.

(Values after patent publication US20230192831A1.)
